Data: US20160046944, “APTAMER TO IL-17 AND USE THEREOF” (THE UNIVERSITY OF TOKYO, published 2016)

B1: aptamer No. 13 (mixed)
mixed: GGGUAGCCGGAGGAGTCAGTAAUCGGUACCC
modifications: 2'-OMe (M), 2'-F (F) as marked; uppercase DNA; (N) printed, likely (M) [1,2,3,4,7,8,10,11,13,14,17,18,21,23,24,25,26,27,28]
B2: aptamer No. 80 (mixed)
RNA: GGGUAGCCGGAGGAGUCAGUAAUCGGUACCC
modifications: g(M)g(M)g(M)u(M)a(M)g(S)c(M)c(M)Gg(M)a(F)gg(M)a(M)gu(F)c(F)a(F)gu(F)a(M)a(M)u(M)c(M)g(M)g(M)u(F)Ac(M)c(M)c(M)
B3: aptamer No. 8 (mixed)
mixed: GGGUAGCCGGAGGAGTCAGTAAUCGGUACCC
modifications: 2'-OMe (M), 2'-F (F), PS (S) as marked; uppercase DNA [1,2,3,4,6,7,8,10,11,13,14,17,18,23,24,25,26,27,28]
B4: aptamer No. 60 (mixed)
mixed: GGGUAGCCGGAGGAGTCAGTAAUCGGUACCC
modifications: g(M)g(M)g(M)u(M)a(M)g(S)c(M)c(M)Gg(M)a(F)gg(M)a(M)g(S)Tc(F)a(F)g(M)Ta(M)a(M)u(M)c(M)g(M)g(M)u(F)a(M)c(M)c(M)c(M)
B5: aptamer No. 66 (mixed)
mixed: GGGUAGCCGGAGGAGTCAGTAAUCGGUACCC
modifications: g(M)g(M)g(M)u(M)a(M)g(S)c(M)c(M)Gg(M)a(F)gg(M)a(M)g(S)Tc(F)a(F)g(S)Ta(M)a(M)u(M)c(M)g(M)g(M)u(M)a(M)c(M)c(M)c(M)
B6: aptamer No. 92 (mixed)
RNA: GGGUAGCCGGAGGAGUCAGUAAUCGGUACCC
modifications: g(M)g(M)g(M)u(M)a(M)g(S)c(M)c(M)Gg(M)a(M)gg(M)a(M)g(S)u(F)c(F)a(F)g(S)u(F)aa(M)u(M)c(M)g(M)g(M)u(F)a(M)c(M)c(M)c(M)
B7: aptamer No. 65 (mixed)
mixed: GGGUAGCCGGAGGAGTCAGTAAUCGGUACCC
modifications: g(M)g(M)g(M)u(M)a(M)g(S)c(M)c(M)Gg(M)a(F)gg(M)a(M)gTc(F)a(F)gTa(M)a(M)u(M)c(M)g(M)g(M)u(M)a(M)c(M)c(M)c(M)
B8: aptamer No. 69 (mixed)
RNA: GGGUAGCCGGAGGAGUCAGUAAUCGGUACCC
modifications: g(M)g(M)g(M)u(M)a(M)g(S)c(M)c(M)Gg(M)a(F)gg(M)a(M)gu(F)c(F)a(F)gu(F)a(M)a(M)u(M)c(M)g(M)g(M)u(F)a(M)c(M)c(M)c(M)
B9: aptamer No. 12 (mixed)
mixed: GGGUAGCCGGAGGAGTCAGTAAUCGGUACCC
modifications: 2'-OMe (M), 2'-F (F) as marked; uppercase DNA [1,2,3,4,7,8,10,11,13,14,17,18,21,22,23,24,25,26,27,28]
B10: aptamer No. 21 (mixed)
mixed: GGGUAGCCGGAGGAGTCAGTAAUCGGTACCC
modifications: 2'-OMe (M), 2'-F (F), PS (S) as marked; uppercase DNA [2'-OMe: 1-4,7,8,10,13,14,23-26,28-31; 2'-F: 17; PS: 6]
B11: aptamer No. 62 (mixed)
mixed: GGGUAGCCGGAGGAGTCAGTAAUCGGUACCC
modifications: g(M)g(M)g(M)u(M)a(M)g(S)c(M)c(M)Gg(M)a(F)gg(M)a(M)gTc(F)a(F)gTa(M)a(M)u(M)c(M)g(M)g(M)u(F)a(M)c(M)c(M)c(M)
B12: aptamer No. 63 (mixed)
mixed: GGGUAGCCGGAGGAGTCAGTAAUCGGUACCC
modifications: g(M)g(M)g(M)u(M)a(M)g(S)c(M)c(M)Gg(M)a(F)gg(M)a(M)g(S)Tc(F)a(F)g(S)Ta(M)a(M)u(M)c(M)g(M)g(M)u(F)a(M)c(M)c(M)c(M)
B13: aptamer No. 81 (mixed)
mixed: GGGUAGCCGGAGGAGTCAGTAAUCGGUACCC
modifications: g(M)g(M)g(M)u(M)a(M)g(S)c(M)c(M)Gg(M)a(M)gg(M)a(M)g(S)Tc(M)a(F)g(S)Ta(M)a(M)u(M)c(M)g(M)g(M)u(M)a(M)c(M)c(M)c(M)
B14: aptamer No. 85 (mixed)
RNA: GGGUAGCCGGAGGAGUCAGUAAUCGGUACCC
modifications: g(M)g(M)g(M)u(M)a(M)g(S)c(M)c(M)Gg(M)a(M)gg(M)a(M)g(S)u(F)c(F)a(F)g(S)u(F)a(M)a(M)u(M)c(M)g(M)g(M)u(F)a(M)c(M)c(M)c(M)
B15: aptamer No. 75 (mixed)
mixed: GGGUAGCCGGAGGAGTCAGTAAUCGGUACCC
modifications: g(M)g(M)g(M)u(M)a(M)gc(M)c(M)gg(M)a(F)gg(M)a(M)gTc(F)a(F)gTa(M)a(M)u(M)c(M)g(M)g(M)u(F)a(M)c(M)c(M)c(M)
B16: aptamer No. 7 (mixed)
RNA: GGGUAGCCGGAGGAGUCAGUAAUCGGUACCC
modifications: 2'-OMe (M), 2'-F (F), PS (S) as marked; uppercase DNA [1,2,3,4,6,7,8,10,11,13,14,16,17,18,20,23,24,25,26,27,28]
B17: aptamer No. 70 (mixed)
RNA: GGGUAGCCGGAGGAGUCAGUAAUCGGUACCC
modifications: g(M)g(M)g(M)u(M)a(M)g(S)c(M)c(M)Gg(M)a(F)gg(M)a(M)g(S)u(F)c(F)a(F)g(S)u(F)a(M)a(M)u(M)c(M)g(M)g(M)u(F)a(M)c(M)c(M)c(M)
B18: aptamer No. 9 (mixed)
mixed: GGGUAGCCGGAGGAGTCAGTAAUCGGUACCC
modifications: 2'-OMe (M), 2'-F (F), PS (S) as marked; uppercase DNA [1,2,3,4,6,7,8,10,11,13,14,17,18,21,22,23,24,25,26,27,28]
B19: aptamer No. 11 (mixed)
mixed: GGGUAGCCGGAGGAGTCAGTAAUCGGUACCC
modifications: 2'-OMe (M), 2'-F (F), PS (S) as marked; uppercase DNA [1,2,3,4,6,7,8,10,11,13,14,17,18,21,23,24,25,26,27,28]
B20: aptamer No. 84 (mixed)
RNA: GGGUAGCCGGAGGAGUCAGUAAUCGGUACCC
modifications: g(M)g(M)g(M)u(M)a(M)g(S)c(M)c(M)Gg(M)a(M)gg(M)a(M)g(S)u(F)c(F)a(F)g(S)u(F)a(M)a(M)u(M)c(M)g(M)g(M)u(M)a(M)c(M)c(M)c(M)
B21: aptamer No. 15 (mixed)
mixed: GGGUAGCCGGAGGAGTCAGTAAUCGGUACCC
modifications: 2'-OMe (M), 2'-F (F) as marked; uppercase DNA [2'-OMe: 1-4,7,8,10,13,14,21,23-26,28; 2'-F: 6,11,17,18,27]
B22: aptamer No. 64 (mixed)
mixed: GGGUAGCCGGAGGAGTCAGTAAUCGGUACCC
modifications: g(M)g(M)g(M)u(M)a(M)g(S)c(M)c(M)Gg(M)a(F)gg(M)a(M)g(S)Tc(M)a(F)g(S)Ta(M)a(M)u(M)c(M)g(M)g(M)u(F)a(M)c(M)c(M)c(M)
B23: aptamer No. 16 (mixed)
mixed: GGGGUAGCCGGAGGAGTCAGTAAUCGGUACCCC
modifications: 2'-OMe (M), 2'-F (F), PS (S) as marked; uppercase DNA [2'-OMe: 1-5,8,9,11,14,15,22-27,29; 2'-F: 12,18,19,28; PS: 7]

Key:
Details in all cases: chain copies: 2
[1] = target: T1, IL-17 (Homo sapiens, UniProt Q16552 Q16552:24-155); experiment: cell_activity; NIH3T3 IL-6 release
T1 sequence: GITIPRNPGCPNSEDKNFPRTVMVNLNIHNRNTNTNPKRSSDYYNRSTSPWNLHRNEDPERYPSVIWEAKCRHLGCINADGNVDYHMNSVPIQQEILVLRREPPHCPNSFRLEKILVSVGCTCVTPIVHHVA
Procedure: First, human IL-17 and the aptamer produced in Example 1-1 were pre-incubated at 37° C. for 30 min, and added to NIH3T3 cell (ATCC, CRL1658) together with mouse TNFα (2 ng/mL). Then, after incubation for 24 hr, the culture supernatant was collected, and the amount of IL-6 was measured by BD Cytometric Bead Array (BD Biosciences). The IL-17 inhibitory action of each aptamer was determined from the amount of IL-6. For comparison with the aptamer of the present invention, a conventionally-known aptamer (aptamer No. 50) against IL-17 was used.

[2] = target: T1, IL-17; experiment: SPR; IL-17R-Fc on chip
Procedure: Whether aptamers shown by aptamer Nos. 1-49 inhibit the binding of IL-17 and IL-17 receptor was evaluated by the surface plasmon resonance method.
For the measurement, BIAcore2000 manufactured by BIAcore was used. […] As an analyte, IL-17 (100 or 150 nM) and an aptamer (50 or 100 nM) shown by aptamer No. 1-49 were mixed, maintained for 15 min and after that the mixture was flown.

[3] = target: T2, IL-17 (IL-17A) (Homo sapiens, UniProt Q16552 Q16552:24-155); experiment: cell_activity; IL-6 release, NIH3T3
T2 sequence: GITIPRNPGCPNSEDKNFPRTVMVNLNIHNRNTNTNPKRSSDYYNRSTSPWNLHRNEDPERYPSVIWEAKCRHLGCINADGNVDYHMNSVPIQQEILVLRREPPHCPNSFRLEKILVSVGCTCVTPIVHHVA
Procedure: First, human IL-17 and the aptamer produced in Example 1-2 were pre-incubated at 37° C. for 30 min, and added to NIH3T3 cell (ATCC, CRL1658) together with mouse TNFα (2 ng/mL). Then, after incubation for 24 hr, the culture supernatant was collected, and the production amount of IL-6 was measured by ELISA method described below. The IL-17 inhibitory action of each aptamer was determined from the production amount of IL-6. For comparison with the aptamer of the present invention, a conventionally-known aptamer (aptamer No. 50) against IL-17 was used.
ELISA method for verifying IL-17 inhibitory action of aptamer: A microtiter plate for ELISA was coated with rat anti-mouse IL-6 antibody (BD Biosciences, 2 μg/mL; 100 μL/well) diluted with PBS, and incubated at 4° C. overnight. The next day, the microtiter plate was washed 3 times with PBS/0.05% Tween 20, and applied blocking with PBS/1% BSA (200 μL/well) at room temperature for 2 hr. Then, the plate was washed 3 times with PBS/0.05% Tween 20. Recombinant mouse IL-6 (BD Biosciences; 100 μL/well) serially diluted with PBS/1% BSA/0.05% Tween 20 or culture supernatants (100 μL/well) were added to the plate. After incubation at room temperature for 2 hr, the plate was washed 3 times with PBS/0.05% Tween 20. Then, 100 μL/well of biotin conjugated rat anti-mouse IL-6 antibody (BD Biosciences) was added to the plate at final dilution of 1/500, and the mixture was reacted at room temperature for 1 hr. After washing 3 times with PBS/0.05% Tween 20, 100 μL/well of alkaline phosphatase conjugated streptavidin was added at final dilution of 1/1000. After 30 min at room temperature, the plate was again washed 4 times with PBS/0.05% Tween 20, and a substrate (1-Step PNPP; Thermo Fisher Scientific Inc; 100 μL/well) was added. After 15 min, aqueous sodium hydroxide solution (2N: 50 μL/well) was added to stop the reaction, and the plate was read on a microtiter reader (Bio-Rad) by using a 405 nm filter.

Binder	IC50 [1]	binding signal [2]	IC50 [3]
B1	0.4 nM	13.8 % IL-17/IL-17R binding remaining	
B2			1.52 nM
B3	0.49 nM	15.3 % IL-17/IL-17R binding remaining	
B4			2.35 nM
B5			1.21 nM
B6			2.6 nM
B7			0.67 nM
B8			1.73 nM
B9	0.52 nM	24.4 % IL-17/IL-17R binding remaining	
B10	0.39 nM		
B11			0.69 nM
B12			0.81 nM
B13			2.26 nM
B14			0.96 nM
B15			1.33 nM
B16	0.3 nM	18.4 % IL-17/IL-17R binding remaining	
B17			3.28 nM
B18	0.64 nM	8.94 % IL-17/IL-17R binding remaining	
B19	0.34 nM	16.8 % IL-17/IL-17R binding remaining	
B20			1.04 nM
B21	0.63 nM	14.2 % IL-17/IL-17R binding remaining	
B22			4.64 nM
B23	0.25 nM	27.9 % IL-17/IL-17R binding remaining	
